The results in this text go back to patent US20250340603A1, “A METHOD FOR MODULATING PLANT ADAPTATION TRAITS” (CRAG (Centre de Recerca en Agrigenòmica), priority 2021, published 2025).

In data set [1] the test system is WT (Col-0) and brl3-2 mutant seedlings. Kind of data set: Bikinin sensitivity assay (hypocotyl elongation). The class given is in vivo, Arabidopsis thaliana. The conditions noted are these: 6 d, LD. As to the method: Chemicals used include; 1 μM BRZ220 (Gift from T. Nakano, RIKEN, Japan) or 50 μM Bikinin (200980, Sigma-Aldrich) for 6-d in control (long days, 22° C.) or high temperature (long days, 28° C.) conditions. Hypocotyl length were measured using the Image J software (v.1.48v) (https-/imagej.nih.gov/ij/).
For hypocotyl elongation analysis, seedlings were grown in horizontally placed 0.5MS− media plates in controlled growth conditions (Aralab 600; long days 16:8h day/night cycle 60% relative humidity and 50-70 μmol m^−2 s^−1 of cool-white fluorescent light) at 22° C. or 28° C. temperature for 5-7d. Plates were photographed and hypocotyl length were measured using the ImageJ software (v.1.48v) (https:/imagej.nih.gov/ij/). For root growth analysis, seedlings were grown in vertically placed 0.5MS− media plates in controlled growth conditions (Aralab 600; long days 16:8h day/night cycle; 22° C.). MyROOT software (Betegón-Putzé et al., 2019) was used to compare root growth of plants. Lateral roots were manually counted under a stereozoom microscope in 9-d-old seedlings.
Seedlings were grown in horizontally placed 0.5MS− media supplemented with or without 50 μM Bikinin (200980, Sigma-Aldrich) for 6-d in control (long days, 22° C.) or high temperature (long days, 28° C.) conditions. Hypocotyl length were measured using the Image J software (v.1.48v) (https://imagej.nih.gov/ii/).

Data set [2] addresses T1, BRL3T1025A, phospho-dead version of the BRL3 kinase domain.
T1 chain: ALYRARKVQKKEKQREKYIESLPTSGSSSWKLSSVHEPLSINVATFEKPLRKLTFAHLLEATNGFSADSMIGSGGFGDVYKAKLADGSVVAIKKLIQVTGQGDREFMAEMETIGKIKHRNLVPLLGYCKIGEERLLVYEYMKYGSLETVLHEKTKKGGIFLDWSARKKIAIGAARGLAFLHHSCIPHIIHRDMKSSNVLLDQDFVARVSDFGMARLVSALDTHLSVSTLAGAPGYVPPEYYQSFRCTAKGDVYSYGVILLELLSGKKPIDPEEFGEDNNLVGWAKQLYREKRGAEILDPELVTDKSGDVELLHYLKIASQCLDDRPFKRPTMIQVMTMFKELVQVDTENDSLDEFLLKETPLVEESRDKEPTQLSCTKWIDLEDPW

Data set [3] has as its target T2, KIN7 kinase domain, GST- or MBP-tagged, from E. coli.
T2 chain: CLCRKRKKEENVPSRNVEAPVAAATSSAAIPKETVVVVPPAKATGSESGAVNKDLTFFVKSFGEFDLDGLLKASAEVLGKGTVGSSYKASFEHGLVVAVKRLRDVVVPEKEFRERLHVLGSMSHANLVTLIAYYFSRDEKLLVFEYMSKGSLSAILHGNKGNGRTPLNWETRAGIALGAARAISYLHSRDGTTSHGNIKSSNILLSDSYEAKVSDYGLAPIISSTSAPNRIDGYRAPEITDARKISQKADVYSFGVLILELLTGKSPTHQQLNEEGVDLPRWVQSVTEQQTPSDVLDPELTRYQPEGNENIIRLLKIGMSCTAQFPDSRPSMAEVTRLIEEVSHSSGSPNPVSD

Consider `O=C(O)CCC(=O)Nc1ccc(Br)cn1` [Bikinin], for which the hypocotyl elongation result in data set [1] (50 μM Bikinin in media, WT and brl3-2 mutant, control (22° C.) and high temperature (28° C.)) is given as “promote hypocotyl elongation”. In addition, the “rescue of brl3 conditional phenotypes (hypocotyl elongation) on elevated temperature” value in data set [1] (50 μM Bikinin, brl3-2 mutant, 28° C.) is reported as “rescued brl3 conditional phenotypes”.

B1: KIN7 kinase domain, GST- or MBP-tagged, from E. coli (protein)
chain: CLCRKRKKEENVPSRNVEAPVAAATSSAAIPKETVVVVPPAKATGSESGAVNKDLTFFVKSFGEFDLDGLLKASAEVLGKGTVGSSYKASFEHGLVVAVKRLRDVVVPEKEFRERLHVLGSMSHANLVTLIAYYFSRDEKLLVFEYMSKGSLSAILHGNKGNGRTPLNWETRAGIALGAARAISYLHSRDGTTSHGNIKSSNILLSDSYEAKVSDYGLAPIISSTSAPNRIDGYRAPEITDARKISQKADVYSFGVLILELLTGKSPTHQQLNEEGVDLPRWVQSVTEQQTPSDVLDPELTRYQPEGNENIIRLLKIGMSCTAQFPDSRPSMAEVTRLIEEVSHSSGSPNPVSD
Consider B1, for which the “incorporation of 32P into BRL3 kinase (in vitro phosphorylation, autoradiography)” value in data set [2] is on record as “KIN7 is not able to phosphorylate BRL3 domains given that the BRL3 phosphorylation pattern is lost when KIN7 is incubated with the phospho-dead version of BRL3 kinase”.

B2: BRL3 kinase domain, GST- or MBP-tagged, from E. coli (protein)
chain: ALYRARKVQKKEKQREKYIESLPTSGSSSWKLSSVHEPLSINVATFEKPLRKLTFAHLLEATNGFSADSMIGSGGFGDVYKAKLADGSVVAIKKLIQVTGQGDREFMAEMETIGKIKHRNLVPLLGYCKIGEERLLVYEYMKYGSLETVLHEKTKKGGIFLDWSARKKIAIGAARGLAFLHHSCIPHIIHRDMKSSNVLLDQDFVARVSDFGMARLVSALDTHLSVSTLAGTPGYVPPEYYQSFRCTAKGDVYSYGVILLELLSGKKPIDPEEFGEDNNLVGWAKQLYREKRGAEILDPELVTDKSGDVELLHYLKIASQCLDDRPFKRPTMIQVMTMFKELVQVDTENDSLDEFLLKETPLVEESRDKEPTQLSCTKWIDLEDPW
Turning to B2, the “incorporation of 32P into KIN7 kinase (in vitro phosphorylation, autoradiography)” value in data set [3] is “The image show and autoradiography revealing the incorporation of 32P into KIN7 kinase when incubated with BRL3”.

B3: BRL3T1025A, phospho-dead version of the BRL3 kinase domain (protein)
chain: ALYRARKVQKKEKQREKYIESLPTSGSSSWKLSSVHEPLSINVATFEKPLRKLTFAHLLEATNGFSADSMIGSGGFGDVYKAKLADGSVVAIKKLIQVTGQGDREFMAEMETIGKIKHRNLVPLLGYCKIGEERLLVYEYMKYGSLETVLHEKTKKGGIFLDWSARKKIAIGAARGLAFLHHSCIPHIIHRDMKSSNVLLDQDFVARVSDFGMARLVSALDTHLSVSTLAGAPGYVPPEYYQSFRCTAKGDVYSYGVILLELLSGKKPIDPEEFGEDNNLVGWAKQLYREKRGAEILDPELVTDKSGDVELLHYLKIASQCLDDRPFKRPTMIQVMTMFKELVQVDTENDSLDEFLLKETPLVEESRDKEPTQLSCTKWIDLEDPW
With B3, in data set [3], the “incorporation of 32P into KIN7 kinase (in vitro phosphorylation, autoradiography)” value is recorded as “The phosphorylation in KIN7 kinase domain is lost when incubated with a phospho-dead version of BRL3, the BRL3T1025A”.
